Residue numbers refer to the chain shown, from its start. Names and notes keep the numbering of the source. Blank lines part the entries; values can stand above or below the binder they belong to.
Assays:
[1] = target: T1, Human CD3 epsilon (CD3ε), on primary human pan T cells (human, UniProt P07766 23-207); test: cell-based or functional assay
[2] = target: T1, Human CD3 epsilon (CD3ε), on primary …; test: flow cytometry on human T cells, anti-human IgG Fc A647 detection
Method: The bsAbs were assayed for their abilities bind T cells and to induce T-cell mediated cytotoxicity against H929 cells (ATCC@CRL-9068™). […] Stain buffer with no antibody was added to bottom 4 wells and assign as background control (secondary antibody alone). Parental Cris7b, CD3B695 (bivalent mAb controls) and CD3B375 (bsAb which was monovalent for Cris-7b) were added also with full dose-response curves.
Frozen T-cells were thawed in a 37° C. water bath and transferred gently into conical tube containing warm 5 mL media (RPMI+10% FBS)/1 vial of 1×10⁶ cells. Cells were mixed and centrifuged for 5 minutes at 400×g followed by resuspension in flow staining buffer, and counted and viability checked. Cells were then plated in 50 uL/50,000 cells/well into assay plates. Assay positive control mAb was added in the first column in quadruplicates at 2× at 20 nM in the bottom 4 wells. Stain buffer with no mAb was added to the top 4 wells and assigned as background controls (secondary antibody alone). Serially diluted antibody samples were added at 50 uL/well using Intergra Viaflo according to the attached plate maps and incubated for 1 hr at 37° C. After one hour incubation, 150 uL staining buffer were added to all wells, and cells were spun at 500×g for 5 minutes to pellet cells. Cells were then washed prior to addition of Alexa Fluor 647 (A647) conjugated anti human IgG Fc specific secondary detection antibody at 2 ug/mL in staining buffer. Secondary detection antibody was added at 50 uL/well to the washed cells. Plates were covered with foil and incubated for 30 minutes on ice or in the fridge. 150 uL staining buffer were added to all wells, and cells were spun at 500×g for 5 min to pellet cells. Cells were resuspended in 20 uL running buffer containing 1:1000 dilution of SYTOX™ green dead cell stain and run plates on iQue® Screener flow cytometer (Essen BioScience, Inc.). Briefly, cells were gated on FCS vs. SCS dot plot to eliminate debris. Singlets were gated on SCS-A vs SCS-H dot plot and from singlet population, live cells gated choosing BL1 channel for low/negative with SYTOX™ green viability stain (Thermo Fisher).

[3] = target: T1, Human CD3 epsilon (CD3ε), on primary …; test: cell-based or functional assay; remark: listed apart in the source

B1: BC3B51 (bispecific antibody, human IgG1, kappa, L234A L235A)
chain: QVQLVQSGAEVKKPGSSVKVSCKASGYTFTRSTMHWVKQAPGQGLEWIGYINPSSAYTNYNQKFQGRVTLTADKSTSTAYMELSSLRSEDTAVYYCASPQVHYDYQGFPYWGQGTLVTVSSGGSEGKSSGSGSESKSTGGSEIVLTQSPATLSASPGERVTLSCSASSSVSYMNWYQQKPGQAPRRWIYDSSKLASGVPARFSGSGSGRDYTLTISSLEPEDFAVYYCQQWSRNPPTFGGGTKVEIKEPKSSDKTHTCPPCPAPEAAGGPSVFLFPPKPKDTLMISRTPEVTCVVVSVSHEDPEVKFNWYVDGVEVHNAKTKPREEQYNSTYRVVSVLTVLHQDWLNGKEYKCKVSNKALPAPIEKTISKAKGQPREPQVYVYPPSREEMTKNQVSLTCLVKGFYPSDIAVEWESNGQPENNYKTTPPVLDSDGSFALVSKLTVDKSRWQQGNVFSCSVMHEALHNHYTQKSLSLSPG
heavy: not shown
light: EIVLTQSPGTLSLSPGERATLSCRASQSISSSFLTWYQQKPGQAPRLLIYGASSRATGIPDRFSGGGSGTDFTLTISRLEPEDFAVYYCQHYGSSPMYTFGQGTKLEIKRTVAAPSVFIFPPSDEQLKSGTASVVCLLNNFYPREAKVQWKVDNALQSGNSQESVTEQDSKDSTYSLSSTLTLSKADYEKHKVYACEVTHQGLSSPVTKSFNRGEC
notes: IgG1 BCMAxCD3; HC1: CD3B2030-N106Q HL scFv-Fc; also called BC3B51.001; B2030 HL NtoQ
- EC50, Cytotoxicity [1]: 27.8 pM
- EC50 [2]: 1.9 nM
- H929 Killing EC50 [3]: 12.9 pM

B2: BC3B114 (bispecific antibody, human IgG1, kappa, L234A L235A)
chain: B1 chain with K38R, I48M, N61A
heavy: not shown
light: B1 light
notes: IgG1 BCMAxCD3; HC1: CD3B2089-N106Q HL scFv-Fc; also called BC3B114.001; B2089 HL NtoQ
- EC50, Cytotoxicity [1]: 12.5 pM
- EC50 [2]: 3.2 nM
- H929 Killing EC50 [3]: 12.6 pM

B7: BC3B117 (bispecific antibody, human IgG1, kappa, L234A L235A)
chain: EIVLTQSPATLSASPGERVTLSCSASSSVSYMNWYQQKPGQAPRRWIYDSSKLASGVPARFSGSGSGRDYTLTISSLEPEDFAVYYCQQWSRNPPTFGGGTKVEIKGGSEGKSSGSGSESKSTGGSQVQLVQSGAEVKKPGSSVKVSCKASGYTFTRSTMHWVKQAPGQGLEWIGYINPSSAYTNYNQKFQGRVTLTADKSTSTAYMELSSLRSEDTAVYYCASPQVHYDYAGFPYWGQGTLVTVSSEPKSSDKTHTCPPCPAPEAAGGPSVFLFPPKPKDTLMISRTPEVTCVVVSVSHEDPEVKFNWYVDGVEVHNAKTKPREEQYNSTYRVVSVLTVLHQDWLNGKEYKCKVSNKALPAPIEKTISKAKGQPREPQVYVYPPSREEMTKNQVSLTCLVKGFYPSDIAVEWESNGQPENNYKTTPPVLDSDGSFALVSKLTVDKSRWQQGNVFSCSVMHEALHNHYTQKSLSLSPG
heavy: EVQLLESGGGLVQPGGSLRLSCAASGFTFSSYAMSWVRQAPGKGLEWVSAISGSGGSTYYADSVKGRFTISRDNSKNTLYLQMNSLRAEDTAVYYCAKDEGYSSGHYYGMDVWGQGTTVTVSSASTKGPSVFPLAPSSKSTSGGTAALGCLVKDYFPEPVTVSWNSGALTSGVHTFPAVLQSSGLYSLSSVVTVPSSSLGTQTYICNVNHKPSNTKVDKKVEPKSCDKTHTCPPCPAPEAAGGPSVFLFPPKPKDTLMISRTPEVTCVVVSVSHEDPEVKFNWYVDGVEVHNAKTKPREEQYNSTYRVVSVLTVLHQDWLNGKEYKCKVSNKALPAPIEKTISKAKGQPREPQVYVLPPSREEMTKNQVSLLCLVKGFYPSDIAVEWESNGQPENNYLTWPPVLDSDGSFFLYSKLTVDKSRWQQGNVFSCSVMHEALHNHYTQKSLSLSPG
light: B1 light
notes: IgG1 BCMAxCD3; HC1: CD3B2030-N106A LH scFv-Fc; also called BC3B117.001; B2030 LH NtoA
- EC50, Cytotoxicity [1]: 149 pM
- EC50 [2]: 60.9 nM
- H929 Killing EC50 [3]: 149 pM

B10: BC3B110 (bispecific antibody, human IgG1, kappa, L234A L235A)
chain: B1 chain with I48M, Q106S, W187L
heavy: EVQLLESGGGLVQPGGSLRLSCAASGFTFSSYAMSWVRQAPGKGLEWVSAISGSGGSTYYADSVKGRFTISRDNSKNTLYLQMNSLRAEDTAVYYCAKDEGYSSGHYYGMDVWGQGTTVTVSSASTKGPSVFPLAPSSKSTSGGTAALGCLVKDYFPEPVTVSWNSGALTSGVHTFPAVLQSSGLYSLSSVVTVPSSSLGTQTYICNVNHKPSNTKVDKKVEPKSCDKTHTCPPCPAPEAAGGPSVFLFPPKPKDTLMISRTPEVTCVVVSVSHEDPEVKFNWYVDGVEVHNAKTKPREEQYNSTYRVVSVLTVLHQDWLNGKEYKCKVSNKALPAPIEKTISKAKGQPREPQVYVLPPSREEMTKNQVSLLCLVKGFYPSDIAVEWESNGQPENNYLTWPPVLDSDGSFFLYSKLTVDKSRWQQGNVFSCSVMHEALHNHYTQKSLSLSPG
light: B1 light
notes: IgG1 BCMAxCD3; HC1: CD3B2051-N106S HL scFv-Fc; also called BC3B110.001; B2051 HL NtoS
- EC50, Cytotoxicity [1]: 781 pM
- EC50 [2]: 31.2 nM
- H929 Killing EC50 [3]: 780 pM

B11: BC3B104 (bispecific antibody, human IgG1, kappa, L234A L235A)
chain: B1 chain with Q106G
heavy: not shown
light: B1 light
notes: IgG1 BCMAxCD3; HC1: CD3B2030-N106G HL scFv-Fc; also called BC3B104.001; B2030 HL NtoG
- EC50, Cytotoxicity [1]: 237 pM
- EC50 [2]: 64.2 nM
- H929 Killing EC50 [3]: 237 pM

B12: BC3B105 (bispecific antibody, human IgG1, kappa, L234A L235A)
chain: B1 chain with Q106S
heavy: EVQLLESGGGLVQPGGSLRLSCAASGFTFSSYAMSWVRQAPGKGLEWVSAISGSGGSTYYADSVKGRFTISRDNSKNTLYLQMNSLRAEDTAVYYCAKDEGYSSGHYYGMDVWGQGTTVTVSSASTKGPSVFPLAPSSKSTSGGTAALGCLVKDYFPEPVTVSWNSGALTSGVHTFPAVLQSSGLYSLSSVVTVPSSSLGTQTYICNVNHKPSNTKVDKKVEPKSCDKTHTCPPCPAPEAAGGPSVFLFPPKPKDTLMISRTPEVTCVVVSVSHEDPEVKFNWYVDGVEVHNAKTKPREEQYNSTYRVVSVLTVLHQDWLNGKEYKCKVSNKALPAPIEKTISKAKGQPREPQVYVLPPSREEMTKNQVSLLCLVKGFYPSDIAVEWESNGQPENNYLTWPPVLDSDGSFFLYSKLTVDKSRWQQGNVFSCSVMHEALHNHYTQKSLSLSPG
light: B1 light
notes: IgG1 BCMAxCD3; HC1: CD3B2030-N106S HL scFv-Fc; also called BC3B105.001; B2030 HL NtoS
- EC50, Cytotoxicity [1]: 172 pM
- EC50 [2]: 20.7 nM
- H929 Killing EC50 [3]: 172 pM

B13: BC3B103 (bispecific antibody, human IgG1, kappa, L234A L235A)
chain: B1 chain with Q106A
heavy: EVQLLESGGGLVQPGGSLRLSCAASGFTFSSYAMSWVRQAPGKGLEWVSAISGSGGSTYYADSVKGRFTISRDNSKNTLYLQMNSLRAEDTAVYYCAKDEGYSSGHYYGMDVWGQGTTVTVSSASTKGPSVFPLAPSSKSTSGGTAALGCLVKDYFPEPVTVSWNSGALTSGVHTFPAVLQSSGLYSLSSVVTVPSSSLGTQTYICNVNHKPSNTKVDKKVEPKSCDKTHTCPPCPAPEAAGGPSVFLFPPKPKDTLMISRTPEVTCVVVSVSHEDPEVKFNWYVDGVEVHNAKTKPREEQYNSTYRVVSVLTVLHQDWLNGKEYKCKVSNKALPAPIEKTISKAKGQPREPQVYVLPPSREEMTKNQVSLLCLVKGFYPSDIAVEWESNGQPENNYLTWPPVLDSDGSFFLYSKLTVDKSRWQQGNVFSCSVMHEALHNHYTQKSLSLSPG
light: B1 light
notes: IgG1 BCMAxCD3; HC1: CD3B2030-N106A HL scFv-Fc; also called BC3B103.001; B2030 HL NtoA
- EC50, Cytotoxicity [1]: 92.1 pM
- EC50 [2]: 4.6 nM
- H929 Killing EC50 [3]: 92.1 pM

B15: BC3B115 (bispecific antibody, human IgG1, kappa, L234A L235A)
chain: B1 chain with K38R, I48M, N61A, Q106S
heavy: not shown
light: B1 light
notes: IgG1 BCMAxCD3; HC1: CD3B2089-N106S HL scFv-Fc; also called BC3B115.001; B2089 HL NtoS
- EC50, Cytotoxicity [1]: 155 pM
- EC50 [2]: 24 nM
- H929 Killing EC50 [3]: 155 pM

B16: BC3B53 (bispecific antibody, human IgG1, kappa, L234A L235A)
chain: B7 chain with A232Q
heavy: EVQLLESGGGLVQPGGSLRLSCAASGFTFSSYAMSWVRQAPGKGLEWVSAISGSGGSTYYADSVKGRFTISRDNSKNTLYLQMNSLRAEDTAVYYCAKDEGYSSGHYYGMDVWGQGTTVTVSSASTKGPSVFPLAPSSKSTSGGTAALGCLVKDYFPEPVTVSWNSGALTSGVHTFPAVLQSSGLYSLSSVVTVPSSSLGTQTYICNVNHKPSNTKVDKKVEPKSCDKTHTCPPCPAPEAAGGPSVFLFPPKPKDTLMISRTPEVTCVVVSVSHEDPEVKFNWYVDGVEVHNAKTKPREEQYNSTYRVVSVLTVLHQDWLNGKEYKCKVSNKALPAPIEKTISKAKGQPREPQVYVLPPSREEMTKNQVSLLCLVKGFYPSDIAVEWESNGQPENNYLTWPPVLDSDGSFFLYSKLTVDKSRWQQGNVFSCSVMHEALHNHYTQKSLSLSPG
light: B1 light
notes: IgG1 BCMAxCD3; HC1: CD3B2030-N106Q LH scFv-Fc; also called BC3B53.001; B2030 LH NtoQ
- EC50, Cytotoxicity [1]: 27.8 pM
- EC50 [2]: 19.6 nM
- H929 Killing EC50 [3]: 27.8 pM

B17: BC3B113 (bispecific antibody, human IgG1, kappa, L234A L235A)
chain: B1 chain with K38R, I48M, N61A, Q106G
heavy: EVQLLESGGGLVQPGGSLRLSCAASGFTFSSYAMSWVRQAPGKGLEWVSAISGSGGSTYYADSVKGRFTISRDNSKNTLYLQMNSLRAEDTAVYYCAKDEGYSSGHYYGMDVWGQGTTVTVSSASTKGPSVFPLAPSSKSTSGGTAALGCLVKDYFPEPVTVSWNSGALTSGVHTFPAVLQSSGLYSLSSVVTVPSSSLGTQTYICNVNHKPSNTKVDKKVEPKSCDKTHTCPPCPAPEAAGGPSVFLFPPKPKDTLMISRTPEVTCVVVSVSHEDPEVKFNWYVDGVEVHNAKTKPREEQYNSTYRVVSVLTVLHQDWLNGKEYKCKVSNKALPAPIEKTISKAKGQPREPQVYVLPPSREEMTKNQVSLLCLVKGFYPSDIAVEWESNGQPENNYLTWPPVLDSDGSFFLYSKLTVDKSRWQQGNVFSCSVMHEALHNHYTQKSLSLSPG
light: B1 light
notes: IgG1 BCMAxCD3; HC1: CD3B2089-N106G HL scFv-Fc; also called BC3B113.001; B2089 HL NtoG
- EC50, Cytotoxicity [1]: 44.3 pM
- EC50 [2]: 11.1 nM
- H929 Killing EC50 [3]: 44.3 pM

B19: BC3B107 (bispecific antibody, human IgG1, kappa, L234A L235A)
chain: B1 chain with I48M, Q106A, W187L
heavy: not shown
light: B1 light
notes: IgG1 BCMAxCD3; HC1: CD3B2051-N106A HL scFv-Fc; also called BC3B107.001; B2051 HL NtoA
- EC50, Cytotoxicity [1]: 41.5 pM
- EC50 [2]: 8.6 nM
- H929 Killing EC50 [3]: 41.5 pM

B20: BC3B109 (bispecific antibody, human IgG1, kappa, L234A L235A)
chain: B1 chain with I48M, W187L
heavy: not shown
light: B1 light
notes: IgG1 BCMAxCD3; HC1: CD3B2051-N106Q HL scFv-Fc; also called BC3B109.001; B2051 HL NtoQ
- EC50, Cytotoxicity [1]: 42.6 pM
- EC50 [2]: 13.8 nM
- H929 Killing EC50 [3]: 42.6 pM

B21: BC3B108 (bispecific antibody, human IgG1, kappa, L234A L235A)
chain: B1 chain with I48M, Q106G, W187L
heavy: not shown
light: B1 light
notes: IgG1 BCMAxCD3; HC1: CD3B2051-N106G HL scFv-Fc; also called BC3B108.001; B2051 HL NtoG
- EC50, Cytotoxicity [1]: 85.3 pM
- EC50 [2]: 11 nM
- H929 Killing EC50 [3]: 85.3 pM

Second part, led by results:

- EC50 [2]: 300 nM
B3: BC3B119 (bispecific antibody, human IgG1, kappa, L234A L235A)
chain: B7 chain with A232S
heavy: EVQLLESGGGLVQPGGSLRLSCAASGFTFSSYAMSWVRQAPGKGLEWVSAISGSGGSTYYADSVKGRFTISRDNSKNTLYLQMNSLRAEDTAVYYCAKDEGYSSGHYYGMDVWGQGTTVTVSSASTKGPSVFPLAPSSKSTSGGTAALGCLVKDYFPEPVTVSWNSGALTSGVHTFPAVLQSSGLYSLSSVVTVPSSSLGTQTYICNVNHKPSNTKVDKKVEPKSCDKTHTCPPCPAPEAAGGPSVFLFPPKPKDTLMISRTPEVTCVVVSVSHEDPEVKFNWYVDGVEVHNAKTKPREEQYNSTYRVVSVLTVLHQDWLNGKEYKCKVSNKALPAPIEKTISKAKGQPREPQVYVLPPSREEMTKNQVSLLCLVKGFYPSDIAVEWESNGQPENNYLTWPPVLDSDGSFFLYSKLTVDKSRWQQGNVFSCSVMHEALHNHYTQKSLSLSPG
light: B1 light
notes: IgG1 BCMAxCD3; HC1: CD3B2030-N106S LH scFv-Fc; also called BC3B119.001; B2030 LH NtoS
- EC50, Cytotoxicity [1]: 10000 pM
- H929 Killing EC50 [3]: 10000 pM

- EC50 [2]: 300 nM
B4: BC3B122 (bispecific antibody, human IgG1, kappa, L234A L235A)
chain: B7 chain with W46L, I174M, A232G
heavy: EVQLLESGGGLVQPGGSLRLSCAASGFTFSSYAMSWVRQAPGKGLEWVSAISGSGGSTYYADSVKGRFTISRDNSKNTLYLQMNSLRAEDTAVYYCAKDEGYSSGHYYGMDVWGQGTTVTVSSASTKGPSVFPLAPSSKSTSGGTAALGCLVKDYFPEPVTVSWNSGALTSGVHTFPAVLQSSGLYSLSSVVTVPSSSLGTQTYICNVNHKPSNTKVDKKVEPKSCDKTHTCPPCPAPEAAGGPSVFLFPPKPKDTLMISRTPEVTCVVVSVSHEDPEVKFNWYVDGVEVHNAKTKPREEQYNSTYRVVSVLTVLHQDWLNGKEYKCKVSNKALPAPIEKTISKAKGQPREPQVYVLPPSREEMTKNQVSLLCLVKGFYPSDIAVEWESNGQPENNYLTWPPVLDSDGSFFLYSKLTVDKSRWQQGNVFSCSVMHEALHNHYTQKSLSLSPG
light: B1 light
notes: IgG1 BCMAxCD3; HC1: CD3B2051-N106G LH scFv-Fc; also called BC3B122.001; B2051 LH NtoG
- EC50, Cytotoxicity [1]: 4360 pM
- H929 Killing EC50 [3]: 4360 pM

- EC50 [2]: 177 nM
B5: BC3B126 (bispecific antibody, human IgG1, kappa, L234A L235A)
chain: B7 chain with K164R, I174M, N187A
heavy: not shown
light: B1 light
notes: IgG1 BCMAxCD3; HC1: CD3B2089-N106A LH scFv-Fc; also called BC3B126.001; B2089 LH NtoA
- EC50, Cytotoxicity [1]: 182 pM
- H929 Killing EC50 [3]: 182 pM

- EC50 [2]: 65 nM
B6: BC3B123 (bispecific antibody, human IgG1, kappa, L234A L235A)
chain: B7 chain with W46L, I174M, A232Q
heavy: not shown
light: B1 light
notes: IgG1 BCMAxCD3; HC1: CD3B2051-N106Q LH scFv-Fc; also called BC3B123.001; B2051 LH NtoQ
- EC50, Cytotoxicity [1]: 69 pM
- H929 Killing EC50 [3]: 69 pM

- EC50 [2]: 42.9 nM
B8: BC3B128 (bispecific antibody, human IgG1, kappa, L234A L235A)
chain: B7 chain with K164R, I174M, N187A, A232Q
heavy: not shown
light: B1 light
notes: IgG1 BCMAxCD3; HC1: CD3B2089-N106Q LH scFv-Fc; also called BC3B128.001; B2089 LH NtoQ
- EC50, Cytotoxicity [1]: 35.4 pM
- H929 Killing EC50 [3]: 35.4 pM

- EC50 [2]: 257 nM
B9: BC3B118 (bispecific antibody, human IgG1, kappa, L234A L235A)
chain: B7 chain with A232G
heavy: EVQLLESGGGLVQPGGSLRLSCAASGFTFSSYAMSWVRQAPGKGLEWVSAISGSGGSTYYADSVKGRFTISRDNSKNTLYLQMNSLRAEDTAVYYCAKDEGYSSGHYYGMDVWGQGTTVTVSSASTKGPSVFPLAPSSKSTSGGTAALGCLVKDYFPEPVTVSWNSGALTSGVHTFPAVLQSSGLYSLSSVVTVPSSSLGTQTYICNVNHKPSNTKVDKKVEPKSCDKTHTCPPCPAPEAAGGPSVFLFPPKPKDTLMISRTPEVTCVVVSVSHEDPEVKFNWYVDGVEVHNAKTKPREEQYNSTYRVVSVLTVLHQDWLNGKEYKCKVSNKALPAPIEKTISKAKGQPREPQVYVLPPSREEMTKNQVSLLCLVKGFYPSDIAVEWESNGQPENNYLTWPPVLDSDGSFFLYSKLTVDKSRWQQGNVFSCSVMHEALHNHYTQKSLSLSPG
light: B1 light
notes: IgG1 BCMAxCD3; HC1: CD3B2030-N106G LH scFv-Fc; also called BC3B118.001; B2030 LH NtoG
- EC50, Cytotoxicity [1]: 745 pM
- H929 Killing EC50 [3]: 745 pM

- EC50 [2]: 300 nM
B14: BC3B127 (bispecific antibody, human IgG1, kappa, L234A L235A)
chain: B7 chain with K164R, I174M, N187A, A232G
heavy: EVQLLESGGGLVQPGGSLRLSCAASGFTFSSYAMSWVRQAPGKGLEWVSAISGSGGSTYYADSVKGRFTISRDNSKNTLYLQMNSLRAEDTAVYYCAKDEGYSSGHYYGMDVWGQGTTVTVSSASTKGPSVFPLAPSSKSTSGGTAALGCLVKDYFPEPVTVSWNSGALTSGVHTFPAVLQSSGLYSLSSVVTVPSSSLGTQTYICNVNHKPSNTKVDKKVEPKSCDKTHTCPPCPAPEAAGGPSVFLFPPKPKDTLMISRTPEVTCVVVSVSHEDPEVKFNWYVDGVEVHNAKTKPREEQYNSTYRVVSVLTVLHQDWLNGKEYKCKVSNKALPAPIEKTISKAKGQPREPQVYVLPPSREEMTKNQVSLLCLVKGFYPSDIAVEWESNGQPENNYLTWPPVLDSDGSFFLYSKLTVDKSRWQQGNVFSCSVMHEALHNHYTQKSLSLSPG
light: B1 light
notes: IgG1 BCMAxCD3; HC1: CD3B2089-N106G LH scFv-Fc; also called BC3B127.001; B2089 LH NtoG
- EC50, Cytotoxicity [1]: 806 pM
- H929 Killing EC50 [3]: 806 pM

- EC50 [2]: 73.3 nM
B18: BC3B121 (bispecific antibody, human IgG1, kappa, L234A L235A)
chain: B7 chain with W46L, I174M
heavy: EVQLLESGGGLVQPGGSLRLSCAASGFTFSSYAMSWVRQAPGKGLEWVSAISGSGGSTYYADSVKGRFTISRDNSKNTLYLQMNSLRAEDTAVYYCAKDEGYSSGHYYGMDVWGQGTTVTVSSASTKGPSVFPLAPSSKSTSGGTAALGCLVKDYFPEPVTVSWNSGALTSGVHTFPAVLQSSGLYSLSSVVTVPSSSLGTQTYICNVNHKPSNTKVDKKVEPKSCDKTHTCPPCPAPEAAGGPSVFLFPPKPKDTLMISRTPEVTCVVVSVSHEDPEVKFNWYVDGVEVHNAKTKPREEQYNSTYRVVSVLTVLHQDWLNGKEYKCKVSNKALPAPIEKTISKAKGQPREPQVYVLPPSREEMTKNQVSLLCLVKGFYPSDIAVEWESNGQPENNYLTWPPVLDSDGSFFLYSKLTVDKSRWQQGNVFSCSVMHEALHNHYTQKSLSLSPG
light: B1 light
notes: IgG1 BCMAxCD3; HC1: CD3B2051-N106A LH scFv-Fc; also called BC3B121.001; B2051 LH NtoA
- EC50, Cytotoxicity [1]: 100 pM
- H929 Killing EC50 [3]: 100 pM
